# T1: TREX1 catalytic core (murine, UniProt Q91XB0 1-242)
# T1 sequence: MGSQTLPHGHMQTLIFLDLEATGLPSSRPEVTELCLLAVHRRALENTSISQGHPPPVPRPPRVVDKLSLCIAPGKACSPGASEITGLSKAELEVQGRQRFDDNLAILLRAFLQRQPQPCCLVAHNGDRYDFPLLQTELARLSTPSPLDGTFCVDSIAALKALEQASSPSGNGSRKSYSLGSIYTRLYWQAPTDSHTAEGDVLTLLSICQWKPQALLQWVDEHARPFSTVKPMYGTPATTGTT
# T2: TREX1 R174A,K175A (murine, UniProt Q91XB0 1-242, R174A;K175A)
# T2 sequence: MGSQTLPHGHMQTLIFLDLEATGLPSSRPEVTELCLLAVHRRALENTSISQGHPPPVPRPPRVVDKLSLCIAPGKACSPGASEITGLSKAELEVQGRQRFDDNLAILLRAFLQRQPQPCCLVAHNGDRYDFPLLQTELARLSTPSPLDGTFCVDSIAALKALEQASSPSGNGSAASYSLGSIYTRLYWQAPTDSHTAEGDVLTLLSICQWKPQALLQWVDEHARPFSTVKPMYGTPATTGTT
# T3: FBF-2 RNA-binding domain (Caenorhabditis elegans, UniProt Q09312 164-575)
# T3 sequence: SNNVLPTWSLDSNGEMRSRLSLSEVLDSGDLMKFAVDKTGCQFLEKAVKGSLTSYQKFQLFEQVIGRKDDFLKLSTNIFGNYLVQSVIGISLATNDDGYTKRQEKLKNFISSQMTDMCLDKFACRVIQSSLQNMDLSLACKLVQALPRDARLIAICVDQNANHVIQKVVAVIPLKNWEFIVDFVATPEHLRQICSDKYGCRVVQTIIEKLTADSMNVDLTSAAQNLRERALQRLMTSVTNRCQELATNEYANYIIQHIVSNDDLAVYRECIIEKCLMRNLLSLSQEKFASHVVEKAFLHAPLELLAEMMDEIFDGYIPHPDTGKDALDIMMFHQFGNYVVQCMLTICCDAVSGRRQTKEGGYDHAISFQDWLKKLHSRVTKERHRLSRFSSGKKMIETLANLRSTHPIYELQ
# Legend:
# [1] = biological target: T4, MS2 coat protein V75E,A81G (MS2 bacteriophage, UniProt P03612 2-130, V76E;A82G); experiment: fluorescence polarization; 25 C; apparent Kd, ligand 5 nM >= Kd so true Kd may be lower; FP with 5 nM ligand at 25 C (some FPCD at 4 C); buffer for MS2-CP (BB6): 100 mM Tris pH 7.5, 10 mM MgCl2, 80 mM KCl, 0.1 mg/mL BSA; other buffers not in material; details: protein: recombinant; tags: HisMBP fusion with 3C protease site; chain copies: 2; label: fluorophore; hairpin
# [2] = biological target: T4, MS2 coat protein V75E,A81G; experiment: competition; displaces [F]RNA2MS2; FP with 5 nM ligand at 25 C (some FPCD at 4 C); buffer for MS2-CP (BB6): 100 mM Tris pH 7.5, 10 mM MgCl2, 80 mM KCl, 0.1 mg/mL BSA; other buffers not in material; details: protein: recombinant; tags: HisMBP fusion with 3C protease site; chain copies: 2; hairpin
# TREX1 catalytic core = biological target: T1, TREX1 catalytic core; experiment: fluorescence polarization; 25 C; apparent Kd; FP with 5 nM ligand at 25 C (some FPCD at 4 C); buffer for MS2-CP (BB6): 100 mM Tris pH 7.5, 10 mM MgCl2, 80 mM KCl, 0.1 mg/mL BSA; other buffers not in material; details: protein: recombinant; tags: MBP fusion, cleaved by protease; chain copies: 2; label: 5' fluorophore (FP)
# TREX1 R174A,K175A = biological target: T2, TREX1 R174A,K175A; experiment: as above; details: protein: recombinant; tags: MBP fusion, cleaved by protease (similar to WT); chain copies: 2; label: 5' fluorophore (FP)
# [3] = biological target: hnRNP-U RNA-binding domain (human, UniProt Q00839 673-825); experiment: as above; details: protein: recombinant; tags: N-terminal His-MBP fusion; label: fluorophore, 3' by name; G-quadruplex
# FBF-2 RNA-binding domain = biological target: T3, FBF-2 RNA-binding domain; experiment: as above; details: protein: recombinant; label: 5' 6-FAM
# Chain of hnRNP-U RNA-binding domain (Q00839 673-825): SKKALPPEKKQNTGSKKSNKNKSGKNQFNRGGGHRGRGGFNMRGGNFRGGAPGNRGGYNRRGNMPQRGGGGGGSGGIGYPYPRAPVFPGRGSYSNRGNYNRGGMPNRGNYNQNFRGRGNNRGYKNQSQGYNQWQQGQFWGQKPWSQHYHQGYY
binder,measurement,setting,value
GGACAUGAGGAUCACCCAUGU (structured_RNA) [[F]RNA2MS2],Kd,[1],2.9 ± 0.62 nM
GGGACUGAGGAUCACCCAGUCUAU (structured_RNA) [RNA1MS2],binding result,[2],binds
GACTG (ssDNA) [[F]d(N)5],Kd,TREX1 catalytic core,8.9 ± 3.8 nM
same,Kd,"TREX1 R174A,K175A",46 ± 16 nM
GGGAAGGGAAGGGAAGGGAA (structured_RNA) [r(G3A2)4[F]],Kd,[3],15 ± 4.8 nM
AACAUGUGCCAUA (ssRNA) [[F]RNAPUF],Kd,FBF-2 RNA-binding domain,50 ± 9.2 nM

# Source: paper PMC10293810, “Multiple RNA- and DNA-binding proteins exhibit direct transfer of polynucleotides with implications for target-site search”
